Test results as given in paper PMC9646525, “Cryo-EM structure of the SEA complex” (Nature, 2022).

T1: Sea2 (S. cerevisiae (endogenous in yeast …, UniProt Q08281 1-1341))
T1 construct: Sea2, S. cerevisiae, endogenous subunit of the SEAC (SEACAT, core); Native protein of the purified complex; two copies in the SEAC; source: endogenous, yeast cells expressing Sea4-TAP; in lysate and co-purified with Sea4-TAP (IgG Dynabeads, TEV elution)
T1 sequence (looked up): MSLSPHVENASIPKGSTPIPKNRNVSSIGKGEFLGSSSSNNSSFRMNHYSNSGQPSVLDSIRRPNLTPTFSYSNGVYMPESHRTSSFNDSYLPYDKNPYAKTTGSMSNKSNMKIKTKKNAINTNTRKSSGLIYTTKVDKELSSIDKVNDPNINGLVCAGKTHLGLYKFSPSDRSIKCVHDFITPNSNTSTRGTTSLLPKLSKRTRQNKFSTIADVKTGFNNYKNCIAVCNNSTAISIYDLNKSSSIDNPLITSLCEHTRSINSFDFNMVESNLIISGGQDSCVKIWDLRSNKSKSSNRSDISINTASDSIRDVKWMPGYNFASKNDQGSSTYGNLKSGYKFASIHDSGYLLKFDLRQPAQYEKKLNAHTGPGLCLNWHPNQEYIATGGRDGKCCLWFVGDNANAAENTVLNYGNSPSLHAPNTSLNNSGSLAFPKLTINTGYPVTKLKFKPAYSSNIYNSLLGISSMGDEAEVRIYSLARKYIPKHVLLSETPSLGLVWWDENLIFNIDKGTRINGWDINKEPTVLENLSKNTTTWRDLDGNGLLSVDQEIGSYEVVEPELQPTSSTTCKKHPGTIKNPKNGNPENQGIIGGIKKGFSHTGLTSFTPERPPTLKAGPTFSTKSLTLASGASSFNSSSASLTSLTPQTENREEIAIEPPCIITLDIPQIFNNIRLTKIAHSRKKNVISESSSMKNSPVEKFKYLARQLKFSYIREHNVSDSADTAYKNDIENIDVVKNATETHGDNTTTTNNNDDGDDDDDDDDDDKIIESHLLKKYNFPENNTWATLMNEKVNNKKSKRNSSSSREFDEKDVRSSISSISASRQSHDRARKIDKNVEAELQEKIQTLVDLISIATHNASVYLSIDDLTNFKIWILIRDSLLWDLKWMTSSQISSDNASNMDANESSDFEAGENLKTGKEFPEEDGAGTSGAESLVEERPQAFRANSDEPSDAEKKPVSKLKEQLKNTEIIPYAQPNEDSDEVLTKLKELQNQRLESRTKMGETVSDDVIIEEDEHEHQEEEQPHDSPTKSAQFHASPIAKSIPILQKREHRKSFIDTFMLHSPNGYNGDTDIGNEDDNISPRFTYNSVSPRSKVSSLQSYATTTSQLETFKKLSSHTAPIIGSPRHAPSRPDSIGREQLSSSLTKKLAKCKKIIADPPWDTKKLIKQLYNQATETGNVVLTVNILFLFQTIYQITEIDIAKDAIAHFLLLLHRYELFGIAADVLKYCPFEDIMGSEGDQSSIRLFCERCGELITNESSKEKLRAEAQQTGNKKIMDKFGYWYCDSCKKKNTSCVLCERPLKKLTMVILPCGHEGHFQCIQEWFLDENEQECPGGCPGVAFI

B1: Sea3 (natural protein, UniProt Q03897 1-1148, looked up)
chain: MCSSINEGPYNSPTFGKSLSLKVDGGFNAVSINPSGRDIVLASRQGLYIIDLDDPFTPPRWLHHITPWQVADVQWSPHPAKPYWIVSTSNQKAIIWNLAKSSSNAIEFVLHGHSRAITDINFNPQHPDVLATCSVDTYVHAWDMRSPHRPFYSTSSWRSAASQVKWNYKDPNVLASSHGNDIFVWDLRKGSTPLCSLKGHVSSVNSIDFNRFKYSEIMSSSNDGTVKFWDYSKSTTESKRTVTTNFPIWRGRYLPFGEGYCIMPMVGGNNAVYLINLCDDDDSEQNKKTKLQPIYAFKGHSDRVIDFLWRSRHTCDGDYDDREFQLVTWSKDCDLKLWPISDSIYGKVNFDRGKRLEEKLPDYDYCSYNKEPENRENVQKNEFRRLRENFVTTSGLKKNKTNHITWLSGIRMNSATSQEDLFNETKIQNLGEEVSAIGHKFPKVVFEKISVSTRELCLTLNGPWSEENPDDYIFLRISINFPLNYPNKGDPPKFTIEENSNLTMSKRQEILSNLATIGQKYTDSNLYCLEPCIRFVLGEKVSLEDIEEGQEPLLNFDIADHIDFEELSSLDSSYSDSQNPENLSSQSDIESYKEALVFPDTSNQGLDFGRNLALDTTPVPNGCGSCWTATGELFCFFANEKKPEKKQNAIIKLSQKEAGVEKHPFKIEPQVLYDKEVDSSVITAADELKARPKRYVDTLGLGGGTNGDSRTYFDDETSSDDSFDSVADDWDDILRNDIIVRTKIPILRGNFKAFSSVHSESGKTVESTKKNKNLVISKNFSSLLSDRKELALEYLFMDATPEGFARNNALVAEKFDLDEISHCWQILSDMLIDQSDYDPYTTIWNNHPMGIKWFIKEAIVYFERQQNLQMLAMLCCVILSARRKKIPARYYGQELENMEGTIVFNDNESQNTSFWKGSDAFSTRSRSSTVTPNFYGNHLRGKNIHGGDNSSIRSDDHHARLRTHNTLNGSSKFTEPAQKQGSRAISSSPFHSRMPDIKVELLHDDIIEAYEQEDLLHLEVSDIPKFQTYIYQYSKLLFRWGLPLERVKILKVSTDFRSSYSSQGIPPNNNKKSPYNGVLTHWIENNEFGEEKFLARNCNYCDLRVTRSSFICGNCQHVLHSSCARIWWEIGDECPSGCGCNCPEMFDA
notes: Sea3, S. cerevisiae, endogenous subunit of the SEAC; Sea3^SIP (Sea3^Nter) lies in the wing, Sea3^SAP (Sea3^Cter) in the core; Native protein of the purified complex; two copies in the SEAC; source: endogenous, yeast cells expressing Sea4-TAP; in lysate and co-purified with Sea4-TAP (IgG Dynabeads, TEV elution)
B2: Sec13 (natural protein, UniProt Q04491 1-297, looked up)
chain: MVVIANAHNELIHDAVLDYYGKRLATCSSDKTIKIFEVEGETHKLIDTLTGHEGPVWRVDWAHPKFGTILASCSYDGKVLIWKEENGRWSQIAVHAVHSASVNSVQWAPHEYGPLLLVASSDGKVSVVEFKENGTTSPIIIDAHAIGVNSASWAPATIEEDGEHNGTKESRKFVTGGADNLVKIWKYNSDAQTYVLESTLEGHSDWVRDVAWSPTVLLRSYLASVSQDRTCIIWTQDNEQGPWKKTLLKEEKFPDVLWRASWSLSGNVLALSGGDNKVTLWKENLEGKWEPAGEVHQ
notes: Sec13, S. cerevisiae, endogenous subunit of the SEAC (SEACAT, core); Native protein of the purified complex; two copies in the SEAC; source: endogenous, yeast cells expressing Sea4-TAP; in lysate and co-purified with Sea4-TAP (IgG Dynabeads, TEV elution)
B3: Npr2 (natural protein, UniProt P39923 1-615, looked up)
chain: MLSYFQGFVPIHTIFYSVFHPTEGSKIKYEFPPNNLKNHGINFNTFKNYIIPKPILCHKLITFKYGTYRIVCYPVTINSPIYARNFFSFNFVFVFPYDCETSPYEPAITRLGKMFKVLEEQNQLLSKSERDPVFFDLKVLENSTTTPSTAGPSSTPNPSSNTTPTHPTSEKDTKDMRSSRYSDLIKDLGLPQSAFSIQDLLMRIFQDLNNYSECLIPIDEGNAVDIKIFPLLRPPTTCVSLEDVPLSSVNLKKIIDVNWDPTMMSIVPYIDGLNSIAKISKLSNSDPGLVIECIRHLIYYKCVTLSDIFQFSNIYAPSSLIRNFLTDPLMASDCQSYVTFPEVSKISNLPLNKSLGSGDQDSPSFSVRRKSKSSSIPSNPDSRTTSFSSTSRVSQNSSLNSSFSSIYKDWRQSQTSCSSSNIHVINNRNRFLPTRSCLFDLYRSLSQGQTLKTWYESKYMILKENNIDIRRFITFGLEKRIIYRCYSFPVMINAGSREPKEMTPIITKDLVNNDKLLEKRNHNHLLSATGSRNTAQSGNLKPERPSKVSFEMQRVSSLATGKSTMPKLSDEEEGILEESIRNAETFDKICVLLSKPKLEVESYLNELGEFKVINS
notes: Npr2, S. cerevisiae, endogenous subunit of the SEAC (SEACIT, wing); Native protein of the purified complex; two copies in the SEAC; source: endogenous, yeast cells expressing Sea4-TAP or Sea1-TAP; in lysate and co-purified with the tagged subunit (IgG Dynabeads, TEV elution)

Columns and labels:
Assay in all cases: cryo-EM structure; endogenous SEAC purified from yeast via Sea4-TAP (IgG Dynabeads, TEV elution in 20 mM HEPES-NaOH pH 7.4, 300 mM NaCl, 2 mM DTT), on graphene-oxide-coated grids
Conditions in all cases: both partners purified
Sea1 = biological target: T2, Sea1 (S. cerevisiae (endogenous in yeast …, UniProt P47170 1-1584))
T2 construct: Sea1 (Iml1), S. cerevisiae, endogenous subunit of the SEAC (SEACIT, wing); Native protein of the purified complex; two copies in the SEAC; also called Iml1; Sea1/Iml1; source: endogenous, yeast cells expressing Sea4-TAP; in lysate and co-purified with Sea4-TAP (IgG Dynabeads, TEV elution)

Sea2 = biological target: T1, Sea2
Sea3 = biological target: B1

T2 sequence (P47170 whole entry): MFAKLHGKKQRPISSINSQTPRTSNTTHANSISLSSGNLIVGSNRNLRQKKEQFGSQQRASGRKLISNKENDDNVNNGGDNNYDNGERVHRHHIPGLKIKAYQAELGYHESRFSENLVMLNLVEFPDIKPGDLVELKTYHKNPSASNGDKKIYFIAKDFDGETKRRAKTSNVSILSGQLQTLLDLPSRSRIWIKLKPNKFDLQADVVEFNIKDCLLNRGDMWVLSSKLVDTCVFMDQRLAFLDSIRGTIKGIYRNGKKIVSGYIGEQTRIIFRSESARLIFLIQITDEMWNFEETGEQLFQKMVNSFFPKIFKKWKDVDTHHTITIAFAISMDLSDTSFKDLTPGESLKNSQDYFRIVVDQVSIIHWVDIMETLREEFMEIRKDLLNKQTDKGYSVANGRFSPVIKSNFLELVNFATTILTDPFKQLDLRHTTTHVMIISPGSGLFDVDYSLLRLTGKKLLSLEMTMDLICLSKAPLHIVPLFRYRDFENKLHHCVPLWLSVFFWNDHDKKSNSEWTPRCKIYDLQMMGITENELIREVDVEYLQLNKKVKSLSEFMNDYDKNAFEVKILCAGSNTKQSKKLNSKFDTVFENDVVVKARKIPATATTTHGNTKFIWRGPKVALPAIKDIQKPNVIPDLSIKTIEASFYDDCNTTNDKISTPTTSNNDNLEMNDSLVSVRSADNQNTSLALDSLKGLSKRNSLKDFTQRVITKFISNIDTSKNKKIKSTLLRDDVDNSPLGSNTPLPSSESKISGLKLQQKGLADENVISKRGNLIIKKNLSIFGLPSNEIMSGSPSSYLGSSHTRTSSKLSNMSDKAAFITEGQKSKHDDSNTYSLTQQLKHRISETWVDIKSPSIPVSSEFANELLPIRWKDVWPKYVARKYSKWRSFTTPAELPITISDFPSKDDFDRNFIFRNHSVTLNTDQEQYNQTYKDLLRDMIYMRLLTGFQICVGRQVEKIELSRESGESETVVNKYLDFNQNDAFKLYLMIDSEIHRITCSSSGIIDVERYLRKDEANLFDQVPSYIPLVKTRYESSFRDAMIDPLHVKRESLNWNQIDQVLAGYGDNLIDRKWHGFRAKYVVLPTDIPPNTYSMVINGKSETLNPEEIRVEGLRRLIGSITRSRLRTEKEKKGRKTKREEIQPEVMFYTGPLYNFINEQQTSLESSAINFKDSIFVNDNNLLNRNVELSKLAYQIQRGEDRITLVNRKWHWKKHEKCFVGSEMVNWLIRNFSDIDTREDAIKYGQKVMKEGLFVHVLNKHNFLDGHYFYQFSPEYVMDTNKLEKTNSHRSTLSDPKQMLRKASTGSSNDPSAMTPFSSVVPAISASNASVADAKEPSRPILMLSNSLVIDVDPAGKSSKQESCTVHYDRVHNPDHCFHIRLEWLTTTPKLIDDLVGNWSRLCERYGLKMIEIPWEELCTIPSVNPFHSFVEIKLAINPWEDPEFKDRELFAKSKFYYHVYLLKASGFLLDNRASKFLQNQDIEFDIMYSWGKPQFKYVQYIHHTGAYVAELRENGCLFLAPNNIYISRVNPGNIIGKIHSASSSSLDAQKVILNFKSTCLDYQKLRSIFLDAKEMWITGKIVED

Binder | binding result (Sea1) | binding result (Sea2) | binding result (Sea3)
B1 | binds | binds | –
B2 | – | – | binds
B3 | binds | – | binds
